Target: FLAG-tagged human GABAC-ρ1 subunit V353D (human, UniProt P24046 22-479, V353D)
Test: co-IP

B1: Calnexin (natural protein, human (endogenous in HEK293), UniProt P27824 21-592, looked up)
chain: HDGHDDDVIDIEDDLDDVIEEVEDSKPDTTAPPSSPKVTYKAPVPTGEVYFADSFDRGTLSGWILSKAKKDDTDDEIAKYDGKWEVEEMKESKLPGDKGLVLMSRAKHHAISAKLNKPFLFDTKPLIVQYEVNFQNGIECGGAYVKLLSKTPELNLDQFHDKTPYTIMFGPDKCGEDYKLHFIFRHKNPKTGIYEEKHAKRPDADLKTYFTDKKTHLYTLILNPDNSFEILVDQSVVNSGNLLNDMTPPVNPSREIEDPEDRKPEDWDERPKIPDPEAVKPDDWDEDAPAKIPDEEATKPEGWLDDEPEYVPDPDAEKPEDWDEDMDGEWEAPQIANPRCESAPGCGVWQRPVIDNPNYKGKWKPPMIDNPSYQGIWKPRKIPNPDFFEDLEPFRMTPFSAIGLELWSMTSDIFFDNFIICADRRIVDDWANDGWGLKKAADGAAEPGVVGQMIEAAEERPWLWVVYILTVALPVFLVILFCCSGKKQTSGMEYKKTDAPQPDVKEEEEEKEEEKDKGDEEEEGEEKLEEKQKSDAEEDGGTVSQEEEDRKPKAEEDEILNRSPRNRKPRRE
fold change of the ratio of immunoprecipitated calnexin/ρ1 against WT: 1.8 fold

— article PMC3864119 (Journal of proteome research, 2013)
